This passage reports Kd, koff and kon results from patent US20240076353A1.

The experiment addresses IL-15R β protein. Nature of the experiment: BLI (Octet-RED); IL-15R β immobilized on Ni-NTA biosensors, serial dilutions of the complex as analyte, global 1:1 fit.

Sequence of IL-15R β protein (P14784 27-240): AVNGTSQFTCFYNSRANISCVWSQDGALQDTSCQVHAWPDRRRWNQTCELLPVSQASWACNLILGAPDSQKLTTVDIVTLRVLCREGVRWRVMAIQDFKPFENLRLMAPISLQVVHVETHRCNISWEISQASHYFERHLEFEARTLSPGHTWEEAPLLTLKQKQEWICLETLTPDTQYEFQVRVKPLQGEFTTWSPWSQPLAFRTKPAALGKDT

Regarding ALT803 (Fc fusion), the Kd was found to be 3.9 nM, the koff turned out to be 0.000235 s⁻¹ and the kon was 60400 M⁻¹ s⁻¹.
